Source: US20190382462A1, “METHODS AND COMPOSITIONS FOR TREATING HPA HYPERACTIVITY” (priority 2017, published 2019)
Numbering of substitutions follows the chain as printed. In names and notes the source's numbering stands. Where two headings read alike, the source gives them in different places.

What was measured:
[1] = molecular target: T1, CRF (Homo sapiens, UniProt P06850); settings: cited from earlier work
T1 construct: Biotinylated CRF was immobilized on an avidin-coated ELISA plate
T1 sequence (P06850 154-194 limits assumed): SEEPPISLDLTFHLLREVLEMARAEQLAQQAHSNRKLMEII

[2] = molecular target: T2, Ucn1 (Homo sapiens, UniProt P55089); settings: cited from earlier work
T2 construct: the related peptide urocortin 1 (Ucn1)
T2 sequence (P55089 83-122 limits assumed): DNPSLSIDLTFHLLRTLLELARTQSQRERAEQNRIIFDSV

[3] = humans; cited from earlier work
[4] = molecular target: T3, rUcn 1 (Rattus norvegicus, UniProt P55090); settings: cited from earlier work; for loss of affinity for rUcn 1: alanine mutants of CRF-BP
T3 sequence (P55090 81-120 limits assumed): T2 sequence (P55089 83-122 limits assumed) with N2D, S4P

[5] = molecular target: T4, r/hCRF (Homo sapiens, UniProt P06850); settings: cited from earlier work; for loss of affinity for r/hCRF: alanine mutants of CRF-BP
T4 sequence (P06850 154-194 limits assumed): T1 sequence (P06850 154-194 limits assumed)

[6] = Single-dose serum pharmacokinetics of CRF-BP-Fc in mice (sandwich ELISA); format: in vivo, mouse; settings: two doses (15 and 45 μg) in mice
Description: (§1) FIG. 2A and FIG. 2B: Serum concentration of CRF-BP-Fc. FIG. 2A: A CRF-BP-Fc fusion protein (SEQ ID NO:16), composed of CRF-BP (25-322) fused to mouse IgG1 Fc was administered to C57B16 mice at 2 doses (15 μg/mouse and 45 μg/mouse). […] FIG. 2B: Freezing in response to mild footshock, a mouse model of stress, was reduced in mice treated with the CRF-BP-Fc fusion protein on the day of treatment (*<0.05 from vehicle-treated mice).
Mice are bled at 1, 6, and 12 hours and at 1, 2, 4, 6, 8, and 12 days post-injection by retro-orbital bleeding. […] The present blood sampling times presuppose a half-life value closer to those reported for human IgG in the mouse.
Concentrations in sera over time of CRF-BP-Fc or CRF-BP-albumin constructs are measured with a sandwich ELISA, which has already been established with a lower limit of detection of 1 ng/ml in serum. This ELISA assay consists of immobilized biotinylated CRF to capture serum CRF-BP-Fc on avidin plates followed by detection with a commercial anti-Fc antibody. This assay is used to monitor the serum concentration of CRF-BP-Fc in preliminary studies. CRF-BP-albumin constructs are detected with the same design using antibodies to albumin and blocking reagents designed for albumin ELISA quantification (e.g., Serum Albumin Sandwich ELISA Kit from LifeSpan BioSciences). […]

[7] = test system: C57BL/6J mice; assay: Shock-induced freezing test (mild footshock stress model); format: in vivo, mouse
Description: as §1
SIF is a defensive behavior observed in response to fearful stimuli exposure (163), and it is used to determine the efficacy of the constructs under study (FIG. 1B). Testing takes place in a Mouse NIR Video Fear Conditioning System (Med Associates, St. Albans, Vt.) housed in soundproof boxes. The session consists of a 2-min habituation period followed by three 1.5 mA footshocks lasting 1 sec and separated by 20 sec. Duration of freezing behavior is measured for 15 min. Freezing behavior, i.e., the absence of all voluntary movements except breathing, is measured in all sessions by real-time digital video recordings calibrated to distinguish between subtle movements such as whisker twitch or tail flick and freezing behavior. This test is performed at days 1 and 4 after administration. Before and after footshock, mice are bled as outlined above for determination of serum corticosterone and compound levels. […]

[8] = test system: corticosterone (CORT); assay: Serum corticosterone (CORT) under repeated footshock stress; format: in vivo; settings: single administration 45 μg/mouse, C57Bl6 mice
Description: FIG. 3: Administration of a CRF-BP-Fc fusion (SEQ ID NO: 16) delayed the increased in basal serum glucocorticoid levels (“CORT” in pg/mL×1000), resulting from repeated stress. Repeated delivery of footshock to mice (dotted vertical lines indicate times for delivery of footshock) results in elevated baseline serum corticosterone (CORT) level in C57B16 mice (black circles), indicative of a chronic stress state. A single administration of CRF-BP-Fc fusion protein at a dose of 45 μg/mouse delayed such increase of baseline serum CORT (black squares). O=vehicle-treated mice; 45=CRF-BP-Fc-treated mice at 45 μg/mouse; *=p<0.05 from […]; CORT: plasma corticosterone levels (ng/ml).
CRFBP-Fc fusion protein was administered to C57B16 mice at a dose of 300 μg/mouse. Data points represent CORT concentration before and after injection of CRFBP-Fc containing IgG2-derived Fc (drug) and at 3 time points preceding repeated footshocks (FS). […] 3 hr after injection compared to vehicle group (**p<0.01, Fisher's LSD).
Stimulated CORT concentrations after injection of CRFBP-Fc containing IgG2-derived Fc and at 3 time points after repeated footshocks (FS). […] 3 hr after injection, FS1, and FS2 compared to vehicle group, respectively (*p<0.05, ****p<0.0001, Fisher's LSD). […]

[9] = molecular target: T1, CRF; assay: CRF binding ELISA (biotinylated CRF on avidin-coated plate); settings: data not shown
Source text: Biotinylated CRF was immobilized on an avidin-coated ELISA plate. […] OD=optical density.

B1: CRF-BP: binding protein that specifically binds to CRF (protein, UniProt P24387 25-322, looked up)
Corticotropin-releasing …: YLELREAADYDPFLLFSANLKRELAGEQPYRRALRCLDMLSLQGQFTFTADRPQLHCAAFFISEPEEFITIHYDQVSIDCQGGDFLKVFDGWILKGEKFPSSQDHPLPSAERYIDFCESGLSRRSIRSSQNVAMIFFRVHEPGNGFTLTIKTDPNLFPCNVISQTPNGKFTLVVPHQHRNCSFSIIYPVVIKISDLTLGHVNGLQLKKSSAGCEGIGDFVELLGGTGLDPSKMTPLADLCYPFHGPAQMKVGCDNTVVRMVSSGKHVNRVTFEYRQLEPYELENPNGNSIGEFCLSGL
For B1, the Kd ([1]; range printed without naming the ligand, read-out: KD (high affinity of CRF-BP)) is listed as 0.1 to 0.2 nM, the Kd ([1]; read-out: KD for CRF) is listed as 0.2 nM and the Kd [2] is listed as 0.1 nM. For the same molecule, the plasma half-life [3] was “minutes”.

B2: Y211A: CRF-BP alanine mutant (protein, UniProt P24387 25-322, looked up, variant Y211A)
Corticotropin-releasing …: B1 Corticotropin-releasing … with Y187A
For B2, the “loss of affinity for rUcn 1” value [4] is given as “complete” and the “loss of affinity for r/hCRF” value [5] is given as “complete”.

B3: L61A: CRF-BP alanine mutant (protein, UniProt P24387 25-322, looked up, variant L61A)
Corticotropin-releasing …: B1 Corticotropin-releasing … with L37A
In the case of B3, the “loss of affinity for rUcn 1” value [4] is listed as “partial” and the “loss of affinity for r/hCRF” value [5] is listed as “partial”.

B4: CRF-BPC277A/C318A: CRF-BP derivative lacking the cysteines of the fifth disulfide bridge (C277/C318) (protein, UniProt P24387 25-322, looked up, variant C277A C318A)
Corticotropin-releasing …: B1 Corticotropin-releasing … with C253A, C294A
In the case of B4, the “affinity for rUcn 1 compared with WT CRF-BP” value [4] is given as “indistinguishable from that of WT CRF-BP” and the “affinity for r/hCRF compared with WT CRF-BP” value [5] is given as “indistinguishable from that of WT CRF-BP”.

B5: CRFBPC237A/C264A: CRF-BP derivative lacking the cysteines of the fourth disulfide bridge (C237/C264) (protein, UniProt P24387 25-322, looked up, variant C237A C264A)
Corticotropin-releasing …: B1 Corticotropin-releasing … with C213A, C240A
In the case of B5, the “affinity for rUcn 1 compared with WT CRF-BP” value [4] is listed as “indistinguishable from that of WT CRF-BP” and the “affinity for r/hCRF compared with WT CRF-BP” value [5] is listed as “indistinguishable from that of WT CRF-BP”.

B6: F123A: CRF-BP alanine mutant (protein, UniProt P24387 25-322, looked up, variant F123A)
Corticotropin-releasing …: B1 Corticotropin-releasing … with F99A
In the case of B6, the “loss of affinity for rUcn 1” value [4] is listed as “partial” and the “loss of affinity for r/hCRF” value [5] is listed as “partial”.

B7: E121A: CRF-BP alanine mutant (protein, UniProt P24387 25-322, looked up, variant E121A)
Corticotropin-releasing …: B1 Corticotropin-releasing … with E97A
For B7, the “loss of affinity for rUcn 1” value [4] is given as “partial” and the “loss of affinity for r/hCRF” value [5] is given as “partial”.

B8: Q188A: CRF-BP alanine mutant (protein, UniProt P24387 25-322, looked up, variant Q188A)
Corticotropin-releasing …: B1 Corticotropin-releasing … with Q164A
For B8, the “loss of affinity for rUcn 1” value [4] is given as “partial” and the “loss of affinity for r/hCRF” value [5] is given as “partial”.

B9: W116A: CRF-BP alanine mutant (protein, UniProt P24387 25-322, looked up, variant W116A)
Corticotropin-releasing …: B1 Corticotropin-releasing … with W92A
For B9, the “loss of affinity for rUcn 1” value [4] is listed as “complete” and the “loss of affinity for r/hCRF” value [5] is listed as “complete”.

B10: CRF-BP-Fc (SEQ ID NO:16): fusion protein composed of CRF-BP (25-322) fused to mouse IgG1 Fc (protein, listed as Mus musculus)
chain: MSPNFKLQCHFILIFLTALRGESRYLELREAADYDPFLLFSANLKRELAGEQPYRRALRCLDMLSLQGQFTFTADRPQLHCAAFFISEPEEFITIHYDQVSIDCQGGDFLKVFDGWILKGEKFPSSQDHPLPSAERYIDFCESGLSRRSIRSSQNVAMIFFRVHEPGNGFTLTIKTDPNLFPCNVISQTPNGKFTLVVPHQHRNCSFSIIYPVVIKISDLTLGHVNGLQLKKSSAGCEGIGDFVELLGGTGLDPSKMTPLADLCYPFHGPAQMKVGCDNTVVRMVSSGKHVNRVTFEYRQLEPYELENPNGNSIGEFCLSGLTGGCKPCICTVPEVSSVFIFPPKPKDVLTITLTPKVTCVVVDISKDDPEVQFSWFVDDVEVHTAQTQPREEQFNSTFRSVSELPIMHQDWLNGKEFKCRVNSAAFPAPIEKTISKTKGRPKAPQVYTIPPPKEQMAKDKVSLTCMITDFFPEDITVEWQWNGQPAENYKNTQPIMDTDGSYFVYSKLNVQKSNWEAGNTFTCSVLHEGLHNHHTEKSLSHSPGK
For B10, the “pharmacokinetic profile from serum concentrations” value [6] was “linear pharmacokinetics with a biexponential profile”, the “circulating serum concentrations effective in reducing behavioral responses to stress” value ([7]; mice) was 1 to 3 µg/mL and the “freezing in response to mild footshock” value ([7]; single administration, day of treatment, vs vehicle-treated mice) was “reduced”. For the same molecule, the “increase in basal serum glucocorticoid (CORT) levels resulting from repeated stress” value [8] was “delayed” and the “effect of fusion to mouse IgG1 Fc on CRF binding” value [9] was “did not alter CRF binding”.
